Measured values taken from patent US6150139A, “Bacterocide compositions and their preparation from micrococcus varians” (priority 1995, dated 2000).

Assays:
[1] = tested on: strain of Lactococcus lactis which produces lacticin 481; assay: inhibition spectrum test on the lacticin 481 producer; format: cell-based
Excerpt: When the strain of Lactococcus lactis which produces lacticin 481 is inoculated in the presence of a […] extract, as previously described in the inhibition spectrum test, the growth of the said strain is seen to be inhibited. The strain of Lactococcus lactis which produces lacticin 481 is immune to its own bacteriocin, lacticin 481, but is not immune to the […] produced by either of the two Micrococcus varians strains according to the present invention.

[2] = tested on: Lactobacillus bulgaricus (YL 5); assay: inactivation by enzymes, agar well test; format: physicochemical; details: 60 min, halo after treatment
[3] = tested on: Lactobacillus helveticus (N 2); assay: resistance to heat, agar well test; format: physicochemical; details: for Inhibition halos (mm): 100 °C, pH 7
[4] = tested on: Lactobacillus helveticus (N 2); assay: inactivation by enzymes, agar well test; format: physicochemical; details: for Inhibition halo diameter after enzyme treatment: 60 min
[5] = tested on: Lactobacillus helveticus (N 2); assay: resistance to pH, agar well test; format: physicochemical; details: readjusted to pH 6-7
Gram-negative bacteria = assay: agar well test, inhibition spectrum, Gram-negative bacteria; format: cell-based; details: results of Table V
Excerpt: The inhibition spectrum of the supernatant is thus determined.

[6] = tested on: Lactobacillus helveticus (N 2); assay: resistance to heat and to pH, agar well test; format: physicochemical; details: for Inhibition halo (mm): 115 °C
[7] = Catalase (SIGMA C-10) 5 mg/ml, incubation 30 °C
[8] = Ficin (SIGMA F-3266) 5 mg/ml, incubation 37 °C
[9] = Pronase E (SIGMA P-8038) 5 mg/ml, incubation 37 °C
[10] = Proteinase K (MERCK 1000 144) 5 mg/ml, incubation 37 °C

lacticin 481
immune: growth of the lacticin 481-producing strain in presence of bacteriocin [1]

variacin: bacteriocin from Micrococcus varians strains CNCM I-1586 and CNCM I-1587, amino acid sequence SEQ ID NO:1 (GSGVIPTISHECHMNSFQFVFTCCS)
0 mm: Inactivation (mm) [2, 8] | Inactivation (mm) [2, 9] | Inactivation (mm) [2, 10] | Inhibition halo diameter after enzyme treatment [4, 8] | Inhibition halo diameter after enzyme treatment [4, 9] | Inhibition halo diameter after enzyme treatment [4, 10]
27 mm: Inactivation (mm) [2, 7] | Inhibition halos (mm) ([3]; incubation time 15 min) | Inhibition halos (mm) ([3]; incubation time 30 min) | Inhibition halos (mm) ([3]; incubation time 60 min) | Inhibition halo diameter after enzyme treatment [4, 7] | Inhibition halos ([5]; pH 2, 37 °C for 60 min) | Inhibition halos ([5]; pH 4, 37 °C for 60 min) | Inhibition halos ([5]; pH 6, 37 °C for 60 min) | Inhibition halos ([5]; pH 8, 37 °C for 60 min) | Inhibition halos ([5]; pH 10, 37 °C for 60 min) | Inhibition halo (mm) ([6]; pH 4, 20 min) | Inhibition halo (mm) ([6]; pH 7, 20 min)
not compromised: bactericidal activity after heating ([3]; 60 min incubation at 100 °C) | bactericidal activity after pH combined with heat ([6]; pH 4 or 7, combined with an elevated temperature)
does not exert any inhibitory effect: inhibitory effect on the growth of Gram-negative bacteria (Gram-negative bacteria)
not found to exert any influence: influence of catalase on bactericidal activity ([4]; two indicator strains N 2 and YL 5)
suppress the bactericidal activity: effect of proteolytic enzymes on bactericidal activity ([4]; all proteolytic enzymes of Tables I and II, indicator strains N 2 and YL 5)
